We go through two molecules from paper doi:10.1101/2021.11.20.466133.

The target of the data set is T1, MsDisA (Mycobacterium smegmatis mc2155, UniProt A0R564 1-372).
T1 sequence: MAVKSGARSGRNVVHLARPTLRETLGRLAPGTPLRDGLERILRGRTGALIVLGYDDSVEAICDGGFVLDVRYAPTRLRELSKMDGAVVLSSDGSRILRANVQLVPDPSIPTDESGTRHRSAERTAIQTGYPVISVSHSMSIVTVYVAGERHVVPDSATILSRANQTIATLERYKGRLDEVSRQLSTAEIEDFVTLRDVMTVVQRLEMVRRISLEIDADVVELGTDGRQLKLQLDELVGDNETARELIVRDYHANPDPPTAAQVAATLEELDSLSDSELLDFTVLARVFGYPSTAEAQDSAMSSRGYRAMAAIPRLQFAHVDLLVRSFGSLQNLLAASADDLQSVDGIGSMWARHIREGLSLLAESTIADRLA
Put plainly: EMSA. In general terms: Mobility shift assays separate free from complexed probe on a gel.

B1: dsDNA 50mer (dsDNA)
DNA 1: GGATACGTAACAACGCTTATGCATCGCCGCCGCTACATCCCTGAGCTGAC
DNA 2: GTCAGCTCAGGGATGTAGCGGCGGCGATGCATAAGCGTTGTTACGTATCC
B1: the binding result is on record as “no binding”.

B2: HLDNA (synthetic Holliday junction) (structured_DNA)
DNA 1: ATCGATAGTCTCTAGACAGCATGTCCTAGCAAGCCAGAATTCGGCAGCGT
DNA 2: GACGCTGCCGAATTCTGGCTTGCTAGGACATTCTTTGCCCACGTTGACCC
DNA 3: GGGTCAACGTGGCAAAGAATGTCCTACGTCCGATACGGATAATCGCCAT
DNA 4: ATGGCGATTATCCGTATCGGACGTCGGACATGCTGTCTAGAGACTATCGA
Regarding B2, the binding result was “no binding”.
